The source of these data is publication PMC12246617, “Cryo-EM structures reveal the PP2A–B55α and Eya3 interaction that can be disrupted by a peptide inhibitor” (The Journal of Biological Chemistry, 2025).

Assay [1] has as its target B55i peptide (computationally engineered inhibitory peptide of B55). The assay can be described thus: fluorescence polarisation; His-B55 serially diluted in 50 mM Tris pH 8, 100 mM NaCl, 1 mM DTT, incubated with 3 nM FITC-B55i at room temperature for 10 min.
Assay [2] deals with T1, His-hB55 (human PP2A regulatory subunit B55α), P63151.
T1 chain: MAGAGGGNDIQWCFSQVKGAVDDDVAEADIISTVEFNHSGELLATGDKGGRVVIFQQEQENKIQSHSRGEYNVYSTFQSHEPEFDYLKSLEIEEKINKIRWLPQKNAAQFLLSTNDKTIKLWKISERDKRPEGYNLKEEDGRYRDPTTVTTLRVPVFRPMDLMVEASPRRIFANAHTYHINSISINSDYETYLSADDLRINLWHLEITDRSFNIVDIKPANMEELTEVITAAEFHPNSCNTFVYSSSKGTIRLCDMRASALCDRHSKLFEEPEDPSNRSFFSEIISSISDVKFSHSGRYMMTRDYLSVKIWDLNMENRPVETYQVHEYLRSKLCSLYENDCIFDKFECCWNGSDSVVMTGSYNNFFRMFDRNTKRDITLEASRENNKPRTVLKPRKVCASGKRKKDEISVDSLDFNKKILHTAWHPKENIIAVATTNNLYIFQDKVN
The assay can be described thus: MST. The settings on record: chain shown with the change;.

Numbering of substitutions follows the chain as printed. Names and notes keep the numbering of the source.

B1: His-hB55 (human PP2A regulatory subunit B55α) (natural protein)
chain: T1 chain
As usually defined, the Kd is a measure of binding affinity in units of concentration. For B1, in assay [1], the Kd is 0.0673 µM.

B2: mouse Eya3 (mEya3), wild type, P97480 Y77A (protein)
chain: MEEEQDLPEQPVKKAKMQEPREQTLSQVNNPDASDEKPETSSLASNLSMSEEIMTCTDYIPRSSNDYTSQMYSAKPAAHILSVPVSETTYPGQTQYQTLQQSQPYAVYPQATQTYGLPPFASSTNASLIPTSSAIANIPAAAVASISNQDYPTYTILGQNQYQACYPSSSFGVTGQTNSDAETTTLAATTYQTEKPSAMVPAPATQRLPSDSSASPPLSQTTPNKDADDQARKNMTVKNRGKRKADASSSQDSELERVFLWDLDETIIIFHSLLTGSYAQKYGKDPTVVIGSGLTMEEMIFEVADTHLFFNDLEECDQVHVEDVASDDNGQDLSNYSFSTDGFSGSGGSGSHGSSVGVQGGVDWMRKLAFRYRKVREIYDKHKSNVGGLLSPQRKEALQRLRAEIEVLTDSWLGTALKSLLLIQSRKNCANVLITTTQLVPALAKVLLYGLGEIFPIENIYSATKIGKESCFERIVSRFGKKVTYVVIGDGRDEEIAAKQHNMPFWRITNHGDLVSLHQALELDFL
Take B2: the dissociation constant (Kd) in assay [2] (parent: 1.04 µM) was 4.87 µM.

B3: mouse Eya3 (mEya3), wild type, P97480 H79A (protein)
chain: B2 chain with A77Y, H79A
On to B3, for which the dissociation constant Kd in assay [2] (parent: 1.04) amounted to 9.16 µM.

B4: mouse Eya3 (mEya3), wild type, P97480 K75A (protein)
chain: B2 chain with K75A, A77Y
Take B4: the Kd in assay [2] (parent: 1.04 µM) was determined as 4.24 µM.
